Test results as given in patent US20240240209A1, “SYNTHESIS OF ENANTIOPURE CIS-A-IRONE FROM A RENEWABLE CARBON SOURCE” (Agency for Science, Technology and Research, priority 2021, published 2024).
Changes are numbered by the printed parent chain. In names and notes the source's numbering stands. Several values for one entry are separate records, joined by “and”; a condition that tells them apart may be missing. Equal entries are not always repeated. Entries after “also recorded” stand apart in the source; their conditions may differ.

B1: pMT7: pMT1 with Y200F S182E L273V L180A A202L Y65F (protein)
chain: MPQEARTPQQQVTADEVGDWYDKFGEVYHLTLGESVHCGLWFPPDAPVPQDMELVTMSSQAQDRFTDYLIETLDPKAGQHLLDIGCGTGRTALKAARQRGIAVTGVAVSKEQIAAANRLAAGHGLTERLTFEVADAMRLPYEDESFDCAWAIESLCHMDRAKALGEAWRVLKPGGDLLVAEEVVTEELTEPETALFETLFALNVPPRLGEFFDIVSGAGFHTLSLKDLSANLAMTMNVFALGVYSRRAEFTERFGAEFVDGLLAGLGSAQETVIRKTRFFMATLRKPAV
modifications: Modified from pMT1
notes: pMT1 with Y200F S182E L273V L180A A202L Y65F
B2: pMT10: pMT1 with Y200F S182E L273V L180A A202L Y65F C156A T91P (protein)
chain: B1 chain with T91P, C156A
modifications: Modified from pMT1
notes: pMT1 with Y200F S182E L273V L180A A202L Y65F C156A T91P

What was measured:
[1] = Cell lysate reaction of pMT enzymes with psi-ionone, irones quantified by HS-SPME-GCMS; assay type: biochemical; details: for fold change in cis-α-irone produced: AUC vs non-mutated (=1)
In short: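 pMT1 site-saturation mutants were expressed in E. coli BL21(DE3) and lysed, and lysates were incubated 2 days at 28 °C with 0.2 mM SAM and 10 mg/L psi-ionone (plus caryophyllene) in 50 mM Tris pH 7, 10 mM MgCl2. Cis-α-irone was measured by HS-SPME-GCMS peak area and given as fold change over non-mutated enzyme.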

[2] = Stability of pMT7 (native PAGE, pre-incubation at 28° C.); details: incubating or reacting at 28° C. overnight
Description: (28 C) or 4° C. (4 C). […] All the data shown is an average of replicate reaction.
(§1) The steady-state kinetic parameters of pMT7 were determined (Table 3). […] While determining the steady-state kinetics of pMT7, it was noticed that the reaction with purified pMT7 stopped at 6 h before significant conversion had taken place (FIG. 15a). Moreover, while using cell extracts containing pMT7, the reaction reached a plateau after 1-day incubation (FIG. 15b). […] Since pMT7 is an hexamer in solution^10, its oligomeric state before and after the reaction was examined. […] (28 C) overnight as compared to 4° C. […] It was further tested if the enzyme was subject to feedback inhibition, as the cofactor product SAH is a potent inhibitor of methyltransferases^12.

[3] = Steady-state kinetics of purified pMT enzyme, substrate psi-ionone; assay type: biochemical; details: pMT10 vs pMT7 (Table 3)
Description: as §1
To determine the purified enzyme kinetics and in vivo production, the reaction mixture was extracted with 0.5× or 1× volume of ethyl acetate and the organic phase was diluted appropriately before subjected to GCMS analysis. The samples were analyzed on an Agilent Intuvo 9000 GC system equipped with Agilent DB-WAX Ultra Inert Intuvo GC column (30 m×250 μm×0.25 μm) and Agilent 5977B mass spectrometry with high efficiency source. 1 μl organic phase was injected at the split ratio 10:1 at 250° C. […] The concentration of psi-ionone and irone were calculated by interpolating with a standard curve prepared by synthetic standards.

[4] = In vitro biotransformation of psi-ionone to cis-α-irone by cell lysate containing overexpressed pMT10; assay type: biochemical; details: 28° C., 3 days
Description: (§2) All the purified enzyme reactions were done in triplicates.
With the positive effect of mtaD, in vitro biotransformation by using cell lysate containing overexpressed pMT10 and mtaD was explored. To challenge the enzyme, 10 mg/L (0.05 mM), 100 mg/L (0.5 mM) or 1000 mg/L (5 mM) of psi-ionone was supplemented into the reaction, and 6.4 mg/L (˜0.03 mM), 54 mg/L (˜0.26 mM) and 182 mg/L (˜0.88 mM) of cis-α-irone were produced, respectively after incubating the reaction at 28° C. for 3 days (FIG. 3d).

[5] = Purified pMT7/pMT10 reaction with auxiliary enzymes mtn and mtaD; assay type: biochemical; details: for cis-α-irone amount relative to pMT7 reaction alone: purified enzyme
Description: as §2
An alternative strategy to reduce SAH inhibition is to introduce auxiliary enzymes that degrade SAH12 (FIG. 18a). […] Noteworthy, with mtaD enzyme, cis-α-irone production by pMT10 was improved by ˜2.5 fold as compared to pMT10 reaction alone (FIG. 3c). […] This somewhat agrees with the effect of mutating D135, which abolishes the hydrogen bond interaction between pMT7 and the amine group of the adenine moiety.

Row | Molecule | cis-α-irone production ([1]; higher as compared to pMT1) | fold change in cis-α-irone produced ([1]; pMT6_Y65 mutants) | fold change in cis-α-irone produced ([1]; pMT7_T91 mutants) | improvement of total turnover number (TTN) ([1]; vs pMT1, TTN = cis-α-irone produced / soluble pMT enzyme) | stability of enzyme [2] | improvement of catalytic efficiency [3] [fold] | cis-α-irone produced ([4]; 10 mg/L (0.05 mM) psi-ionone) | cis-α-irone produced ([4]; 100 mg/L (0.5 mM) psi-ionone) | cis-α-irone production improvement with mtaD enzyme ([5]; as compared to pMT10 reaction alone) [fold] | cis-α-irone amount relative to pMT7 reaction alone ([5]; with mtaD) [fold] | cis-α-irone amount relative to pMT7 reaction alone ([5]; without mtaD) [fold]
1 | B1 | 2,450 fold | 1.4 | 1.0 | 2,000 fold | remained intact as hexamer; also recorded: stable under the reaction temperature |  |  |  |  |  | 
2 | B2 |  |  |  |  |  | 10 | 6.4 mg/L and ~0.03 mM | 54 mg/L and ~0.26 mM | ~2.5 | ~6.5 | ~4.5
